Results as given in patent US20210107998A1 (Boehringer Ingelheim, published 2021).

What was measured:
Test in all cases: cell-based or functional assay
[1] = target: Recombinant human BAFF 60mer (Boehringer Ingelheim Pharmaceuticals, Inc.) (human, UniProt Q9Y275 134-285, limits assumed)
[2] = target: T1, Recombinant human BAFF trimer (Boehringer Ingelheim Pharmaceuticals, Inc.) (human, UniProt Q9Y275 134-285, limits assumed)
[3] = target: T1, Recombinant human BAFF trimer …; remark: listed apart in the source
[4] = target: Recombinant cynomolgus BAFF trimer (Boehringer Ingelheim Pharmaceuticals, Inc.) (cynomolgus, UniProt A0A2K5V2X4 134-285)
[5] = target: membrane-bound human BAFF on fixed CHO-K1 cells (human, UniProt Q9Y275 1-285)

| Binder | IC50, NFkB luciferase reporter, human BAFFR-CHO cells [1] | IC90, NFkB luciferase reporter, human BAFFR-CHO cells [1] | IC50, NFkB luciferase reporter, human BAFFR-CHO cells [2] | IC90, NFkB luciferase reporter, human BAFFR-CHO cells [2] | IC50 Geomean, NFkB luciferase reporter, human TACI-CHO cells [3] | IC90 Geomean, NFkB luciferase reporter, human TACI-CHO cells [3] | IC50 Geomean, NFkB luciferase reporter, human BAFFR-CHO cells [4] | IC90 Geomean, NFkB luciferase reporter, human BAFFR-CHO cells [4] | IC50, NFkB luciferase reporter, human BAFFR-CHO cells stimulated with fixed human BAFF CHO-K1 cells [5] | IC90, NFkB luciferase reporter, human BAFFR-CHO cells stimulated with fixed human BAFF CHO-K1 cells [5] |
| --- | --- | --- | --- | --- | --- | --- | --- | --- | --- | --- |
| Compound O (bispecific antibody, human IgG1, kappa, L234A L235A) chain 1: DIQMTQSPSSLSASVGDRVSITCKASQNAGIDVAWFQQKPGKAPKLLIYSKSNRYTGVPSRFSGSGSGTDFTLTISSLQPEDFADYYCLQYRSYPRTFGGGTKLEIKGGGSGGGGQVQLVQSGAEVKKPGSSVKVSCKASGYTFTDQTIHWMRQAPGQGLEWIGYIYPRDDSPKYNENFKGKVTITADKSTSTAYMELSSLRSEDTAVYYCAIPDRSGYAWFIYWGQGTLVTVSSLGGGSGASTKGPSVFPLAPSSKSTSGGTAALGCLVKDYFPEPVTVSWNSGALTSGVHTFPAVLQSSGLYSLSSVVTVPSSSLGTQTYICNVNHKPSNTKVDKRVEPKSCDKTHTCPPCPAPEAAGGPSVFLFPPKPKDTLYITREPEVTCVVVDVSHEDPEVKFNWYVDGVEVHNAKTKPREEQYNSTYRVVSVLTVLHQDWLNGKEYKCKVSNKALPAPIEKTISKAKGQPREPQVYTLPPSREEMTKNQVSLTCLVKGFYPSDIAVEWESNGQPENNYKTTPPVLDSDGSFFLYSKLTVDKSRWQQGNVFSCSVMHEALHNHYTQKSLSLSPG chain 2: DIQMTQSPSSLSASVGDRVTITCKASRDVAIAVAWYQQKPGKVPKLLIYWASTRHTGVPSRFSGSGSRTDFTLTISSLQPEDVADYFCHQYSSYPFTFGSGTKLEIKGGGSGGGGQVQLVQSGAEVKKPGASVKVSCKASGYSFSTFFIHWVRQRPGQGLEWIGRIDPNSGATKYNEKFESKVTLTRDTSISTAYMELSRLRSDDTAVYYCARGEDLLIRTDALDYWGQGTSVTVSSLGGGSGRTVAAPSVFIFPPSDEQLKSGTASVVCLLNNFYPREAKVQWKVDNALQSGNSQESVTEQDSKDSTYSLSSTLTLSKADYEKHKVYACEVTHQGLSSPVTKSFNRGEC | 0.005 nM | 0.006 nM | 0.027 nM | 0.119 nM |  |  |  |  |  |  |
| Compound Q (bispecific antibody, human IgG1, kappa, L234A L235A) chain 1: DIQMTQSPSSLSASVGDRVSITCKASQNAGIDVAWFQQKPGKAPKLLIYSKSNRYTGVPSRFSGSGSGTDFTLTISSLQPEDFATYYCLQYRSYPRTFGQGTKLEIKGGGSGGGGQVQLVQSGAEVKKPGSSVKVSCKASGYTFTDQTIHWMRQAPGQGLEWIGYIYPRDDSPKYNENFKGKVTITADKSTSTAYMELSSLRSEDTAVYYCAIPDRSGYAWFIYWGQGTLVTVSSLGGGSGASTKGPSVFPLAPSSKSTSGGTAALGCLVKDYFPEPVTVSWNSGALTSGVHTFPAVLQSSGLYSLSSVVTVPSSSLGTQTYICNVNHKPSNTKVDKRVEPKSCDKTHTCPPCPAPEAAGGPSVFLFPPKPKDTLYITREPEVTCVVVDVSHEDPEVKFNWYVDGVEVHNAKTKPREEQYNSTYRVVSVLTVLHQDWLNGKEYKCKVSNKALPAPIEKTISKAKGQPREPQVYTLPPSREEMTKNQVSLTCLVKGFYPSDIAVEWESNGQPENNYKTTPPVLDSDGSFFLYSKLTVDKSRWQQGNVFSCSVMHEALHNHYTQKSLSLSPG chain 2: DIQMTQSPSSLSASVGDRVTITCKASRDVAIAVAWYQQKPGKVPKLLIYWASTRHTGVPSRFSGSGSRTDFTLTISSLQPEDVADYFCHQYSSYPFTFGSGTKLEIKGGGSGGGGQVQLVQSGAEVKKPGASVKVSCKASGYSFSTFFIHWVRQAPGQGLEWIGRIDPNSGATKYNEKFESRVTMTRDTSISTAYMELSRLRSDDTAVYYCARGEDLLIRTDALDYWGQGTSVTVSSLGGGSGRTVAAPSVFIFPPSDEQLKSGTASVVCLLNNFYPREAKVQWKVDNALQSGNSQESVTEQDSKDSTYSLSSTLTLSKADYEKHKVYACEVTHQGLSSPVTKSFNRGEC | 0.005 nM | 0.013 nM | 0.026 nM | 0.108 nM |  |  |  |  |  |  |
| Compound P (bispecific antibody, human IgG4 S228P, kappa) chain 1: DIQMTQSPSSLSASVGDRVSITCKASQNAGIDVAWFQQKPGKAPKLLIYSKSNRYTGVPSRFSGSGSGTDFTLTISSLQPEDFADYYCLQYRSYPRTFGGGTKLEIKGGGSGGGGQVQLVQSGAEVKKPGSSVKVSCKASGYTFTDQTIHWMRQAPGQGLEWIGYIYPRDDSPKYNENFKGKVTITADKSTSTAYMELSSLRSEDTAVYYCAIPDRSGYAWFIYWGQGTLVTVSSLGGGSGASTKGPSVFPLAPCSRSTSESTAALGCLVKDYFPEPVTVSWNSGALTSGVHTFPAVLQSSGLYSLSSVVTVPSSSLGTKTYTCNVDHKPSNTKVDKRVESKYGPPCPPCPAPEFLGGPSVFLFPPKPKDTLYITREPEVTCVVVDVSQEDPEVQFNWYVDGVEVHNAKTKPREEQFNSTYRVVSVLTVLHQDWLNGKEYKCKVSNKGLPSSIEKTISKAKGQPREPQVYTLPPSQEEMTKNQVSLTCLVKGFYPSDIAVEWESNGQPENNYKTTPPVLDSDGSFFLYSRLTVDKSRWQEGNVFSCSVMHEALHNHYTQKSLSLSLG chain 2: DIQMTQSPSSLSASVGDRVTITCKASRDVAIAVAWYQQKPGKVPKLLIYWASTRHTGVPSRFSGSGSRTDFTLTISSLQPEDVADYFCHQYSSYPFTFGSGTKLEIKGGGSGGGGQVQLVQSGAEVKKPGASVKVSCKASGYSFSTFFIHWVRQRPGQGLEWIGRIDPNSGATKYNEKFESKVTLTRDTSISTAYMELSRLRSDDTAVYYCARGEDLLIRTDALDYWGQGTSVTVSSLGGGSGRTVAAPSVFIFPPSDEQLKSGTASVVCLLNNFYPREAKVQWKVDNALQSGNSQESVTEQDSKDSTYSLSSTLTLSKADYEKHKVYACEVTHQGLSSPVTKSFNRGEC | 0.002 nM | 0.009 nM | 0.019 nM | 0.088 nM |  |  |  |  |  |  |

The remaining lines, values ahead:

| IC50, NFkB luciferase reporter, human BAFFR-CHO cells [1] | IC90, NFkB luciferase reporter, human BAFFR-CHO cells [1] | IC50, NFkB luciferase reporter, human BAFFR-CHO cells [2] | IC90, NFkB luciferase reporter, human BAFFR-CHO cells [2] | IC50 Geomean, NFkB luciferase reporter, human TACI-CHO cells [3] | IC90 Geomean, NFkB luciferase reporter, human TACI-CHO cells [3] | IC50 Geomean, NFkB luciferase reporter, human BAFFR-CHO cells [4] | IC90 Geomean, NFkB luciferase reporter, human BAFFR-CHO cells [4] | IC50, NFkB luciferase reporter, human BAFFR-CHO cells stimulated with fixed human BAFF CHO-K1 cells [5] | IC90, NFkB luciferase reporter, human BAFFR-CHO cells stimulated with fixed human BAFF CHO-K1 cells [5] | Binder |
| --- | --- | --- | --- | --- | --- | --- | --- | --- | --- | --- |
| 1.55 nM | 6.84 nM | 0.106 nM | 0.361 nM |  |  |  |  |  |  | Compound X (bispecific antibody, human IgG4 S228P, kappa) chain 1: SSELTQDPAVSVALGQTVRVTCQGDSLRSYYASWYQQKPGQAPVLVIYGKNNRPSGIPDRFSGSSSGNTASLTITGAQAEDEADYYCSSRDSSGNHWVFGGGTELTVLGGGSGGGGQVQLVQSGAEVKKPGSSVKVSCKASGYTFTDQTIHWMRQAPGQGLEWIGYIYPRDDSPKYNENFKGKVTITADKSTSTAYMELSSLRSEDTAVYYCAIPDRSGYAWFIYWGQGTLVTVSSLGGGSGASTKGPSVFPLAPCSRSTSESTAALGCLVKDYFPEPVTVSWNSGALTSGVHTFPAVLQSSGLYSLSSVVTVPSSSLGTKTYTCNVDHKPSNTKVDKRVESKYGPPCPPCPAPEFLGGPSVFLFPPKPKDTLYITREPEVTCVVVDVSQEDPEVQFNWYVDGVEVHNAKTKPREEQFNSTYRVVSVLTVLHQDWLNGKEYKCKVSNKGLPSSIEKTISKAKGQPREPQVYTLPPSQEEMTKNQVSLTCLVKGFYPSDIAVEWESNGQPENNYKTTPPVLDSDGSFFLYSRLTVDKSRWQEGNVFSCSVMHEALHNHYTQKSLSLSLG chain 2: DIQMTQSPSSLSASVGDRVTITCKASRDVAIAVAWYQQKPGKVPKLLIYWASTRHTGVPSRFSGSGSRTDFTLTISSLQPEDVADYFCHQYSSYPFTFGSGTKLEIKGGGSGGGGQVQLQQSGAEVKKPGSSVRVSCKASGGTFNNNAINWVRQAPGQGLEWMGGIIPMFGTAKYSQNFQGRVAITADESTGTASMELSSLRSEDTAVYYCARSRDLLLFPHHALSPWGRGTMVTVSSLGGGSGRTVAAPSVFIFPPSDEQLKSGTASVVCLLNNFYPREAKVQWKVDNALQSGNSQESVTEQDSKDSTYSLSSTLTLSKADYEKHKVYACEVTHQGLSSPVTKSFNRGEC |
| 24.1 nM | 180 nM | 0.232 nM | 0.743 nM | 0.273 nM | 0.576 nM | 0.288 nM | 0.635 nM | 0.553 nM | 10.1 nM | Control Antibody 1 (anti-BAFF monoclonal antibody) (BAFF (1)) (antibody, V domains shown) VH: QVQLQQSGAEVKKPGSSVRVSCKASGGTFNNNAINWVRQAPGQGLEWMGGIIPMFGTAKYSQNFQGRVAITADESTGTASMELSSLRSEDTAVYYCARSRDLLLFPHHALSPWGRGTMVTVSS VL: SSELTQDPAVSVALGQTVRVTCQGDSLRSYYASWYQQKPGQAPVLVIYGKNNRPSGIPDRFSGSSSGNTASLTITGAQAEDEADYYCSSRDSSGNHWVFGGGTELTVL |
| 0.005 nM | 0.016 nM | 0.03 nM | 0.139 nM |  |  |  |  |  |  | Compound R (bispecific antibody, human IgG4 S228P, kappa) chain 1: DIQMTQSPSSLSASVGDRVSITCKASQNAGIDVAWFQQKPGKAPKLLIYSKSNRYTGVPSRFSGSGSGTDFTLTISSLQPEDFATYYCLQYRSYPRTFGQGTKLEIKGGGSGGGGQVQLVQSGAEVKKPGSSVKVSCKASGYTFTDQTIHWMRQAPGQGLEWIGYIYPRDDSPKYNENFKGKVTITADKSTSTAYMELSSLRSEDTAVYYCAIPDRSGYAWFIYWGQGTLVTVSSLGGGSGASTKGPSVFPLAPCSRSTSESTAALGCLVKDYFPEPVTVSWNSGALTSGVHTFPAVLQSSGLYSLSSVVTVPSSSLGTKTYTCNVDHKPSNTKVDKRVESKYGPPCPPCPAPEFLGGPSVFLFPPKPKDTLYITREPEVTCVVVDVSQEDPEVQFNWYVDGVEVHNAKTKPREEQFNSTYRVVSVLTVLHQDWLNGKEYKCKVSNKGLPSSIEKTISKAKGQPREPQVYTLPPSQEEMTKNQVSLTCLVKGFYPSDIAVEWESNGQPENNYKTTPPVLDSDGSFFLYSRLTVDKSRWQEGNVFSCSVMHEALHNHYTQKSLSLSLG chain 2: DIQMTQSPSSLSASVGDRVTITCKASRDVAIAVAWYQQKPGKVPKLLIYWASTRHTGVPSRFSGSGSRTDFTLTISSLQPEDVADYFCHQYSSYPFTFGSGTKLEIKGGGSGGGGQVQLVQSGAEVKKPGASVKVSCKASGYSFSTFFIHWVRQAPGQGLEWIGRIDPNSGATKYNEKFESRVTMTRDTSISTAYMELSRLRSDDTAVYYCARGEDLLIRTDALDYWGQGTSVTVSSLGGGSGRTVAAPSVFIFPPSDEQLKSGTASVVCLLNNFYPREAKVQWKVDNALQSGNSQESVTEQDSKDSTYSLSSTLTLSKADYEKHKVYACEVTHQGLSSPVTKSFNRGEC |
